The source of these data is patent CN117820472A (VAZYME MEDICAL CO LTD; HUNAN NOVAZYME MEDICAL TECH CO LTD, dated 2024).

Ends that are not written are not given here.

The target of this assay is T1, Tau 181多肽 (also: biotin coupling for SA coating, place not given here).
T1 peptide: CPPAPKTPP
Description: indirect ELISA, cell supernatants on SA+biotin peptide plates (m1 as a member of the 80 antibodies). Background: ELISA stands for enzyme-linked immunosorbent assay.

B1: Anti-p-Tau 181-rRmab-1 (antibody, V domains shown)
VH: CQSVEESGGRLVTPGTPLTLTCTVSGFSLSIYAMSWVRQAPGKGLEYIGYIVSSGSTYYASWAKGRVTISKTSSTTVDLKITSPATEDTATYFCARGSITGFTRLELWGQGTLVTVSS
VL: DIVMTQTPASVEAAVGGTVTIKCQASESISSGLAWYQQKPGQPPKLLIYGASTLASGVPSRFKGSRSGTEYTLTISDLECADAATYYCQSYYYSSGSSLLYGFGGGTEVVVK
notes: Recombinant rabbit monoclonal antibody from single B cell cloning, expressed in HEK293 cells and purified on protein A. Only the variable domains are printed
B1: the binding result is listed as “no binding”.
